Each sequence was assayed on Escherichia coli TOP10 (assay: shrunken log2 fold change of peptide-encoding DNA abundance (4.5 h post-induction vs induction); higher = less antimicrobial activity (less host growth inhibition)). Settings: time post-induction: 4.5 h; library: site-saturation at positions 5, 18, 19, 20.
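Further: peptides expressed intracellularly from a pBAD plasmid library in pooled LB shake-flask culture, induced with 0.3% L-arabinose, DNA abundance read by NGS, three biological replicates, DESeq2 with apeglm shrinkage.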

| Sequence | shrunken log2 fold change |
| --- | --- |
| RRIRLRPPRLPRPRPRPNISPRP | -0.373 |
| RRIRARPPRLPRPRPRPDNMPRP | -0.45 |
| RRIRGRPPRLPRPRPRPACNPRP | 0.415 |
| RRIRPRPPRLPRPRPRPAAEPRP | 0.595 |
| RRIRMRPPRLPRPRPRPERMPRP | 1.35 |
| RRIRTRPPRLPRPRPRPRPGPRP | 0.621 |
| RRIRGRPPRLPRPRPRPNNGPRP | -0.363 |
| RRIRIRPPRLPRPRPRPRPQPRP | 0.321 |
| RRIRGRPPRLPRPRPRPHSDPRP | 0.204 |
| RRIRHRPPRLPRPRPRPWYYPRP | -1.47 |
| RRIRIRPPRLPRPRPRPVGNPRP | 0.00174 |
| RRIRHRPPRLPRPRPRPKKNPRP | -0.14 |
| RRIRGRPPRLPRPRPRPAQIPRP | 0.592 |
| RRIRTRPPRLPRPRPRPRHDPRP | 0.0144 |
| RRIRDRPPRLPRPRPRPYPEPRP | 0.0271 |
| RRIRLRPPRLPRPRPRPCHFPRP | -0.285 |
| RRIRPRPPRLPRPRPRPLRMPRP | 0.596 |
| RRIRHRPPRLPRPRPRPHFPPRP | -0.324 |
| RRIRDRPPRLPRPRPRPFFNPRP | -0.156 |
| RRIRNRPPRLPRPRPRPWDWPRP | 0.0265 |
| RRIRFRPPRLPRPRPRPDKLPRP | -0.505 |
| RRIRWRPPRLPRPRPRPNHQPRP | -0.342 |
| RRIRCRPPRLPRPRPRPMMCPRP | 0.0512 |
| RRIRNRPPRLPRPRPRPFIGPRP | -0.0677 |
| RRIRFRPPRLPRPRPRPLMPPRP | -0.00679 |

| Sequence | shrunken log2 fold change |
| --- | --- |
| RRIRKRPPRLPRPRPRPSCCPRP | 0.269 |
| RRIRNRPPRLPRPRPRPSRFPRP | -0.0872 |
| RRIRLRPPRLPRPRPRPQHQPRP | -0.261 |
| RRIRPRPPRLPRPRPRPGPQPRP | 0.521 |
| RRIRLRPPRLPRPRPRPTYGPRP | -0.0237 |
| RRIRWRPPRLPRPRPRPIQDPRP | 0.0265 |
| RRIRMRPPRLPRPRPRPHLNPRP | 0.176 |
| RRIRVRPPRLPRPRPRPCCLPRP | -0.241 |
| RRIRYRPPRLPRPRPRPIKMPRP | -0.666 |
| RRIRGRPPRLPRPRPRPLDKPRP | 0.401 |
| RRIRFRPPRLPRPRPRPNIYPRP | -0.116 |
| RRIRRRPPRLPRPRPRPLYFPRP | -0.115 |
| RRIRGRPPRLPRPRPRPFERPRP | -0.012 |
| RRIRMRPPRLPRPRPRPEDDPRP | -0.01 |
| RRIRSRPPRLPRPRPRPCSDPRP | 0.21 |
| RRIRPRPPRLPRPRPRPSIKPRP | -0.33 |
| RRIRERPPRLPRPRPRPCPTPRP | -0.204 |
| RRIRIRPPRLPRPRPRPHWMPRP | -1.57 |
| RRIRGRPPRLPRPRPRPAMYPRP | 0.369 |
| RRIRWRPPRLPRPRPRPWSFPRP | -0.0355 |
| RRIRNRPPRLPRPRPRPSTSPRP | -0.36 |
| RRIRCRPPRLPRPRPRPHFIPRP | -0.528 |
| RRIRKRPPRLPRPRPRPPCHPRP | 0.176 |
| RRIRERPPRLPRPRPRPHSMPRP | -0.126 |
| RRIRPRPPRLPRPRPRPPHMPRP | 0.214 |

| Sequence | shrunken log2 fold change |
| --- | --- |
| RRIRRRPPRLPRPRPRPIFVPRP | 0.0119 |
| RRIRWRPPRLPRPRPRPRQWPRP | 0.0802 |
| RRIRNRPPRLPRPRPRPRCCPRP | -0.247 |
| RRIRRRPPRLPRPRPRPIHQPRP | -0.136 |
| RRIRHRPPRLPRPRPRPIVCPRP | -0.0297 |
| RRIRVRPPRLPRPRPRPKWFPRP | -0.0567 |
| RRIRPRPPRLPRPRPRPEREPRP | 0.49 |
| RRIRRRPPRLPRPRPRPDTCPRP | 0.133 |
| RRIRLRPPRLPRPRPRPWGSPRP | 0.103 |
| RRIRMRPPRLPRPRPRPPPMPRP | 1.54 |
| RRIRDRPPRLPRPRPRPIHCPRP | -0.135 |
| RRIRPRPPRLPRPRPRPHFVPRP | -0.144 |
| RRIRHRPPRLPRPRPRPFGLPRP | -0.0904 |
| RRIRARPPRLPRPRPRPLARPRP | 0.81 |
| RRIRPRPPRLPRPRPRPWPDPRP | -0.149 |
| RRIRWRPPRLPRPRPRPWQCPRP | -0.233 |
| RRIRRRPPRLPRPRPRPCKKPRP | 0.0185 |
| RRIRIRPPRLPRPRPRPSDWPRP | -0.0413 |
| RRIRVRPPRLPRPRPRPFCFPRP | 0.0496 |
| RRIRCRPPRLPRPRPRPPDNPRP | 0.0386 |
| RRIRNRPPRLPRPRPRPIQQPRP | -0.000431 |
| RRIRIRPPRLPRPRPRPGTLPRP | 0.0164 |
| RRIRARPPRLPRPRPRPECFPRP | 0.938 |
| RRIRERPPRLPRPRPRPTQVPRP | -0.0607 |
| RRIRDRPPRLPRPRPRPRGMPRP | 0.0251 |
